Data as given in article PMC10749193 (Frontiers in Immunology, 2023).

Target: SARS-CoV-2 S2 subunit ectodomain (S2-ECD, 686–1213 aa) (SARS-CoV-2 Wuhan, UniProt P0DTC2)
Experiment: ELISA
Details: both partners purified

B1: anti-S2 monoclonal antibody 4A5 (antibody, V domains shown)
VH: QVKLEQSGPGILQPSQTLSLTCSFSGFSLSTSGMGVSWIRQSSGKGLEWLTHIYWDDDKRYNPSLKSRLTISKDTSRNQVFLKITSVDTADTATYYCARRRMITGLYYAMDYWGQGTSVTVSS
VL: DIVMTQSTLSLPVSFGDQVSISCRSSQSLANSYGITYLSWYLHKPGQSPQLLIYGISNRFSGVPDRFSGSGSGTDFTLKISTIKPEDLGMYYCLQGTHQPWTFGGGTKLEIK
  binding result: binds
